From patent US20040191240A1, “Composition and method for nerve regeneration” (priority 2003, published 2004)

T1: RhoA complexed with Rho GDI (Bos taurus, UniProt P19803)
T1 construct: GST (N, cleaved yes); made in house; host or cells: yeast (RhoA, from membranes); E. coli (Rho GDI, pGEX)
T1 sequence (P19803 1-204): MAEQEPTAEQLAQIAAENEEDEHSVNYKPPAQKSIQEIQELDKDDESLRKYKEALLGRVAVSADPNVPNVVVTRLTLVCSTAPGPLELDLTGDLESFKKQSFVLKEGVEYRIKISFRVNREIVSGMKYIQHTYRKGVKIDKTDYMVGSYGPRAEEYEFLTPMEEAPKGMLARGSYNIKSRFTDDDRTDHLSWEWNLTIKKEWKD

B1: p75 in which alanine was replaced with valine at amino acid 423: p75 positions 273-427 of SEQ ID NO. 4 with alanine replaced with valine at amino acid 423 (protein)
chain: KRWNSCKQNKQGANSRPVNQTPPPEGEKLHSDSGISVDSQSLHDQQPHTQTASGQALKGDGGLYSSLPPAKREEVEKLLNGSAGDTWRHLAGELGYQPEHIDSFTHEACPVRALLASWATQDSATLDALLAALRRIQRADLVESLCSESTVTSPV
modifications: Homo sapien
B2: p75 ICD: GST-fused intracellular domain (ICD) of p75 (protein)
chain: KRWNSCKQNKQGANSRPVNQTPPPEGEKLHSDSGISVDSQSLHDQQTHTQTASGQALKGDGNLYSSLPLTKREEVEKLLNGDTWRHLAGELGYQPEHIDSFTHEACPVRALLASWGAQDSATLDALLAALRRIQRADIVESLCSESTATSPV
modifications: left off: a dimerising Fc or GST

Key:
male Wistar rats = assay: Spinal cord injury (dorsal half dissected, ninth thoracic vertebra), agent pumped to the injured site; type: in vivo, rat; conditions: species not stated
Description: 200 g male Wistar rats were used. After the ninth thoracic vertebrae laminectomy was performed, the dorsal half of the spinal cord was dissected. A continuous osmotic pump was used to continuously administer either TAT(PTD domain)-fused Pep5 (TAT-[…]) (SEQ ID NO. 2) or TAT(PTD domain)-fused control peptide (TAT-[…]) (SEQ ID NO. 15) to the injured site for 6 weeks ([…]). In this case, the tip of a tube connected to the pump was left in the medullary space. After spinal cord injury, the functional recovery was assessed using the BBB score. The animals were observed on day 7, 14, 21, 28, 35, and 42 after injury. These experiments were carried out using techniques described in Fournier A. E., Takizawa, B. T., Strittmatter, S. M., J. Neurosci. 2003, 23, 1416-1423.
200 g male Wistar rats were used. After the ninth thoracic vertebrae laminectomy was performed, the dorsal half of the spinal cord was dissected. A continuous osmotic pump was used to continuously administer either TAT-fused Pep5 or TAT (PTD domain)-fused control peptide to the injured site.

[1] = biological target: T1, RhoA complexed with Rho GDI; assay: In vitro nucleotide exchange assay; type: biochemical; conditions: high Mg2+; 50 nM complex, 90 nM GST-Dbl
Description: Lipid-modified RhoA was purified from yeast membranes as described (Forget, M. A., Desrosiers, R. R., Gingras, D. & Beliveau, R., Biochem. J. 361, 243-54(2002)). [^3H]GDP- or GDP-RhoA complexed with Rho GDI was obtained by first incubating GDP-RhoA with or without [^3H]GDP, followed by incubation with Rho GDI for 30 min, as described previously (Takahashi, K. et al., J. Biol. Chem. 272, 23371-23375 (1997)). The sample, subjected to gel filtration, was equilibrated with 20 mM Tris-HCl (pH 7.5) containing 5 mM MgCl2, 1 mM dithiothreitol and 0.1% CHAPS. The GDP dissociation and GTP binding assays were carried out by the filter binding method as described previously (Hart, M. J., Eva, A., Evans, T., Aaronson, S. A. & Cerione, R. A., Nature 354, 311-314 (1991)). In the [^3H]GDP dissociation assay, 50 nM of the complex was incubated for 20 min with various concentrations of GST-fused proteins in a reaction mixture (50 μl) containing 30 mM Tris-HCl (pH 7.5), 5 mM or 0.5 μM MgCl2, 1 (for low Mg) or 10 (for high Mg) mM EDTA, 0.1 mM GTP, 1 mM dithiothreitol, 0.12% CHAPS and 0.2mg/ml bovine serum albumin. In the [^35S] GTPγS binding assay, the complex was incubated as described above except that 1 μM [^35S] GTPγS was used instead of 0.1 mM GTP. At the indicated time, an aliquot of the reaction sample was removed, and passed through nitrocellulose filters (IPVH 000, Millipore). […]

Molecule | nerve regeneration, similar experiments with modified amino acids (Example 2-8) (male Wistar rats) | Dbl stimulated dissociation of GDP from GDP-RhoA complexed with Rho GDI [1]
B1 | nerve regeneration was similarly observed | –
B2 | – | showed the inhibitory effect to the same extent as p75 HD
